{"source": "paper PMC3004248", "biological_target": "one-twelfth protomer of the giant extracellular haemoglobin from Glossoscolex paulistus (cyanomet HbGp) (Glossoscolex paulistus)", "assay": "crystal structure; cyanomet-HbGp, whole particle; crystals from 1.2 M sodium citrate, 2.5 mM CaCl2, 50 mM Tris-HCl pH 7.5; space group I222, data to 3.2 Å; molecular replacement with the one-twelfth protomer of L. terrestris erythrocruorin (2gtl); preliminary, not refined"}
{"substance": "one-twelfth protomer of the giant extracellular haemoglobin from Glossoscolex paulistus (cyanomet HbGp) (complex)", "values": [{"measurement": "stoichiometry N (protomers per full particle)", "result": 12}]}
